From US20150252099A1 (TRELLIS BIOSCIENCE, published 2015)
Like-named read-outs stand apart in the source and are kept apart here.

Assays:
[1] = target: T1, CMV gB protein (strain AD169), purified (human cytomegalovirus (CMV), strain …, UniProt P06473 32-906, limits assumed); test: ForteBio biosensor, antibody coupled to the probe, gB in solution
T1 construct: also called recombinant gB protein; purified gB protein
Protocol: (§1) In this method, the carboxylic acid groups on Amine Reactive Biosensors were activated with EDC/NHS. […] The gB protein was incubated with the Ab-coated probe and rates of association to and dissociation from the Ab-coated probe were determined by the FortéBio® instrument.

[2] = target: T1, CMV gB protein (strain AD169), purified; test: told with the gB binding kinetics (ForteBio biosensor); reference mAb 4A2
Protocol: as §1

[3] = target: T1, CMV gB protein (strain AD169), purified; test: cell-based or functional assay
[4] = target: T2, AD-2 peptide NETIYNTTLKYGDV (human cytomegalovirus (CMV)); test: ELISA binding assay on the AD-2 peptide
T2 construct: also called peptide AD-2; conserved peptide designated AD-2
T2 peptide: NETIYNTTLKYGDV

[5] = target: T1, CMV gB protein (strain AD169), purified; test: ForteBio biosensor, antibody coupled to the probe, gB in solution; remark: listed apart in the source
Protocol: as §1

T1 sequence (P06473 32-906 limits assumed): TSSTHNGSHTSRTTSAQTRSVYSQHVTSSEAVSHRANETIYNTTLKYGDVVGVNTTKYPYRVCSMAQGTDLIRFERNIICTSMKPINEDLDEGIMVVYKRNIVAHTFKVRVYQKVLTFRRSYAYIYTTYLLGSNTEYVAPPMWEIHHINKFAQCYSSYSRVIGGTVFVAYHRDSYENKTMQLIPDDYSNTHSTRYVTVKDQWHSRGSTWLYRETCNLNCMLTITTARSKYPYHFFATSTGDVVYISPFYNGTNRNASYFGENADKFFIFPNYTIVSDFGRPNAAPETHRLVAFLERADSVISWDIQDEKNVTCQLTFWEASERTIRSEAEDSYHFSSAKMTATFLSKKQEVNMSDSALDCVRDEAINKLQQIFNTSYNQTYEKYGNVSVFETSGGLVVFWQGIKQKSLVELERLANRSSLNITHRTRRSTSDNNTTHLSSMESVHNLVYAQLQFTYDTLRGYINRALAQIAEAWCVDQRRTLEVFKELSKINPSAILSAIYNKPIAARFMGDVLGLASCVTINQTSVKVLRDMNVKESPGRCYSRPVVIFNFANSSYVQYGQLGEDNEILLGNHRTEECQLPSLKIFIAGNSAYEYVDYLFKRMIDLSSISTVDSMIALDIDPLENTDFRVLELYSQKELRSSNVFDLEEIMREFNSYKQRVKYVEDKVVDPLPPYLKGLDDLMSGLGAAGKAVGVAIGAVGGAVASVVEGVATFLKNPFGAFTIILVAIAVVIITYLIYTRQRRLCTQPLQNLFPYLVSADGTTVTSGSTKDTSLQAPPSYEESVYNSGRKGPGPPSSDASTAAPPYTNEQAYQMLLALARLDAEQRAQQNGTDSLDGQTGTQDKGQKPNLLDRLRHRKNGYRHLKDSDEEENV

B1: MAB313 (antibody, V domains shown)
VH: QVQLVQSGGGVIQPGRSLTLSCAASGFTFSAYSLHWVRQAPGKGLQWVAVISFDGNFKHFADSLRGRFTISRDNSKNRFYLQMNGLRGEDTAVYYCARDGRAVDGFSGILDFWGQGTLVSVSS
VL: EIVMTQSPATLSLSPGERATLSCRASQSVGRYLTWFQQKPGQAPRLLIYDASERATGIPARFSGSGSGTDFTLTISSLEPEDFAVYYCQQRANWPPLTFGGGTKVEIK
- Kd [1]: 0.7 nM
- koff [1]: 1.2e-05 s⁻¹
- kon [1]: 17000 M⁻¹ s⁻¹
- fold higher potency than mAb 4A2 [2]: ~10 fold

B2: MAB345 (antibody, V domains shown)
VH: QVQLVESGGGVVQPGRSLRLSCAASGFTFSDYNMHWVRQAPGKGLEWVAVISIDGTYKYSADSVAGRFSLSRDNSKNTLYLQMNSLRPDDTAIYYCARDGRSVGGFSGILDPWGQGTLVTVSS
VL: EIVMTQSPATLSLSPGDRATLSCRASQSVGSYLAWYQQKPGQAPRLLMYDSSVRATGIPARFSGSGSGTDFTLTISSLEPEDFAVYYCQQRNNWPPLTFGGGTKVEIK
notes: also called ATCC PTA-121705
- Kd [1]: 2.3 nM
- koff [1]: 3.3e-05 s⁻¹
- kon [1]: 14000 M⁻¹ s⁻¹

B3: MAB338 (antibody, V domains shown)
VH: QVQLVESGGGVVQPGRSLRLSCSGSGFTFSDYNLHWVRQAPGKGLEWVAVISIDGTNKHHADSVKGRFTISRDNSKNTVNLEMSRLKAEDTAVYYCVRDGRSIGGYSGIFDPWGQGTLVTVSS
VL: EIVLTQSPATLSLSPGERATLSCRASQSVDRYLAWYQQKPGQAPRLLIYDASQRATGIPARFSGSGSGTDFTLAISSLEPEDVAVYYCQQRSNWPPLTFGGGTKIEIK
- fold higher potency than mAb 4A2 [2]: ~10 fold

B4: mAb 19B10 (antibody, V domains shown)
VH: QVQLQQSGPGLVKPSQTLSLTCTVSGGSISSGDFCWNWIRQPPGKGLEWIGYICYTGDTYYNPPLNSRVTISVDRSRNQISLRLSSVTAADTAVYYCAREDRRQLHSRPYFYYGLDVWGRGTKVTVSS
VL: EIVMTQSPLSLPVTPGETASISCRSSQSLLHSNGHNYLDWYLQKPGQSPHLLIYLGSIRASGVPDRFSGSGTGTDFTLKISRVEAEDVGVYYCMQALQTPNTFGQGTKLEIRR
notes: Human mAb
- IC50 (µg/mL), neutralizing potency [3]: 0.04 µg/mL
- binding result [4]: no binding
- Kd [5]: 0.697 nM

B5: mAb 4A2 (antibody, V domains shown)
VH: QVLLEESGGGVVQPGRSLRLSCAGSGFTFNRHGIHWVRQAPGKGLEWVTVISSDGANQQYAESVKGRFIISRDNSKNTVYLEMNSLRNDDTGVYFCARDGRCEGERCYSGVTDFWGQGTLV
VL: EIVLTQSPATLSLSPGERATLSCRASQNIGGYLAWFQQKAGQAPRLLIYDASIRATGIPARFSGSGSGTDFTLTISSLEPEDFAVYYCQQRNSWPPLTFG
notes: Human mAb
- IC50 (µg/mL), neutralizing potency [3]: 0.02 µg/mL
- Kd [5]: 0.168 nM

B6: MAB310 (antibody, V domains shown)
VH: QVQLVQSGGGVVQPGTSLRLSCAASGFMFNTYNMHWVRQAPGKGLEWVAVISNDGTYKYSADSLKGRFSISRDNSKNTLYLHMNSLRPDDTAVYYCARDGRSVGGFSGILDPWGQGTLVTVSS
VL: EIVLTQSPATLSLSPGDRATLSCRASQTVGRYLAWYQQKPGQAPRLLIYDASDRATGISARFSGSGSGTDFTLTISSLEPEDFAVYYCQQRSNWPPLTFGGGTKVEIKR
- Kd [1]: 0.8 nM
- koff [1]: 1.2e-05 s⁻¹
- kon [1]: 16000 M⁻¹ s⁻¹
- fold higher potency than mAb 4A2 [2]: ~10 fold
